Experiments:
[1] = target: T1, recombinant mouse periostin (mouse, UniProt Q62009-2 24-811, limits assumed); experiment: BLI (Octet Red); Table 6 ties the low end of the range to mouse periostin
T1 construct: also called MoPOSTN
T1 sequence (looked up): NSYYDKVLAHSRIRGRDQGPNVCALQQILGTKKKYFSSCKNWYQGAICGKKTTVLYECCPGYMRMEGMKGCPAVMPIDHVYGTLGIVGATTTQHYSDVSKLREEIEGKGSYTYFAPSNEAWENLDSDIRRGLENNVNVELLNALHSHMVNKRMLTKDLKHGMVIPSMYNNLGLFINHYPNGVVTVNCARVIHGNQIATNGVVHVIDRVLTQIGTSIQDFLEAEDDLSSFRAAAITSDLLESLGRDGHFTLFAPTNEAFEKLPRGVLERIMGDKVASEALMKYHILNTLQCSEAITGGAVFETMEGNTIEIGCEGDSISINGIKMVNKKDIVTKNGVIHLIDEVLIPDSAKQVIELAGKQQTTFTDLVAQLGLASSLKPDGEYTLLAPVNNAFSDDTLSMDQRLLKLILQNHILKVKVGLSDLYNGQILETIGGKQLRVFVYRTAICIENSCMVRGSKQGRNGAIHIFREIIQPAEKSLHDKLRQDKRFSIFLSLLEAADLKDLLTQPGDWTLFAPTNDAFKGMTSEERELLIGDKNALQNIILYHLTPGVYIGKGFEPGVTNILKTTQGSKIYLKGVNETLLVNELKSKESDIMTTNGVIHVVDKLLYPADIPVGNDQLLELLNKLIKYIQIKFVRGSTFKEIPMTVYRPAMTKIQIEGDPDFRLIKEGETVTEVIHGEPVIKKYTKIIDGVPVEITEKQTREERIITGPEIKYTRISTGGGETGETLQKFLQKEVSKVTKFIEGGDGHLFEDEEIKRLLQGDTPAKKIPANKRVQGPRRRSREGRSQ
Experimental: (§1) NB0828's binding affinity was determined across human, mouse, rat, and cyno species. NB0828 affinities were determined using the octet red system. Briefly, anti-human Fc (AHC) biosensors were used to capture NB0828, followed by association of titrating amounts of either recombinant human, mouse, rat, or cyno periostin (100 nM→0 nM; 1:2 dilutions). Recombinant human, mouse, and rat periostin was purchased commercially from R&D systems, whereas cyno periostin was made internally.

[2] = target: T2, recombinant human periostin (human, UniProt Q15063 22-836); experiment: BLI (Octet Red), NB0828 captured on anti-human Fc (AHC) biosensors, periostin titrated from 100 nM
T2 construct: also called HuPOSTN; POSTN
T2 sequence: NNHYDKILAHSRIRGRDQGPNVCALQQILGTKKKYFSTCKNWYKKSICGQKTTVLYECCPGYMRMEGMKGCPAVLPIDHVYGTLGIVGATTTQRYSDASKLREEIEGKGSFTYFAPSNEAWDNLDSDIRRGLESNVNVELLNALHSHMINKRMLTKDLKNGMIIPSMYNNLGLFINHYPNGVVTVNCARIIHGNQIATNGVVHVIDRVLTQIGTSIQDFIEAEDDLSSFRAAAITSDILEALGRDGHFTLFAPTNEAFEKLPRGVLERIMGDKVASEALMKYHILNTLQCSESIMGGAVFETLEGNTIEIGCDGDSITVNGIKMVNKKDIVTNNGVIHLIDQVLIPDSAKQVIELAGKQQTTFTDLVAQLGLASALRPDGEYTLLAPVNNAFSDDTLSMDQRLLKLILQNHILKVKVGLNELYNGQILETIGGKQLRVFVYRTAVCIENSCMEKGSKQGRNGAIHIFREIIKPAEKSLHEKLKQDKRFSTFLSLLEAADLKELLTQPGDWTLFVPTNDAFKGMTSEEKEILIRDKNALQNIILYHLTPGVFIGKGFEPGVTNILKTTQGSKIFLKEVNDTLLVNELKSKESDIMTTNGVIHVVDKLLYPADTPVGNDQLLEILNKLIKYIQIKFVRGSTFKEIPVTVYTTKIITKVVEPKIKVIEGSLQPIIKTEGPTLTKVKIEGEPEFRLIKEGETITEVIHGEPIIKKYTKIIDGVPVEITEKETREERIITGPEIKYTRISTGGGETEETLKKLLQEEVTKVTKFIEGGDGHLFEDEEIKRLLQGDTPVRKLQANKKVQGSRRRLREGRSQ
Experimental: as §1

[3] = target: T3, recombinant cyno periostin (cyno, UniProt F6ZVK0 47-861 (rhesus entry)); experiment: as above
T3 construct: also called CynoPOSTN
T3 sequence: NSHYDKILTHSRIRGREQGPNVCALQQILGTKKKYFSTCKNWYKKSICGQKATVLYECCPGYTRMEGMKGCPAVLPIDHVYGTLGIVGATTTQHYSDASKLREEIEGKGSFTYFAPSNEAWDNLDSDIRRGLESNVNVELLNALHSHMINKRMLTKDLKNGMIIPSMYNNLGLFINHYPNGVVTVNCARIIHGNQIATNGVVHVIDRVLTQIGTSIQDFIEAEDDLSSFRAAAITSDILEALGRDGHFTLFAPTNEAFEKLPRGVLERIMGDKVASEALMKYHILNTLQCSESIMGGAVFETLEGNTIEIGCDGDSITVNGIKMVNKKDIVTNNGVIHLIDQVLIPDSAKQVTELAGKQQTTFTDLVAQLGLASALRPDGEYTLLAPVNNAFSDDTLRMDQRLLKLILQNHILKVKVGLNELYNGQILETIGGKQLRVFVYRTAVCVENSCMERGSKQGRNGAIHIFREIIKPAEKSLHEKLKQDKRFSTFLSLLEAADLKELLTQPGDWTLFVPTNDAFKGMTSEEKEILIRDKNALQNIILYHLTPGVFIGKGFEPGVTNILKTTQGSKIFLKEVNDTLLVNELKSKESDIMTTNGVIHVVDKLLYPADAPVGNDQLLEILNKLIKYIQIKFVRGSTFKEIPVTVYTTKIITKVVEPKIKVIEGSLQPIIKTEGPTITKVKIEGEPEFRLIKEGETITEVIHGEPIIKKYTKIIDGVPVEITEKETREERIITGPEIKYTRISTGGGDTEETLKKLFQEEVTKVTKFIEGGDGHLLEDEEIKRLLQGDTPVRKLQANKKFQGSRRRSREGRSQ
Experimental: as §1

[4] = target: T1, recombinant mouse periostin; experiment: as above
Experimental: as §1

[5] = target: T1, recombinant mouse periostin; experiment: binding ELISA, periostin coated

B1: NB0828 (antibody, V domains shown)
VH: QVQLVQSGAEVKKPGASVKVSCKASGYTFTSYGISWVRQAPGQGLEWMGWISAYNGNTNYAQKLQGRVTMTTDTSTSTAYMELRSLRSDDTAVYYCARDMLVVPFDYWGQGTLVTVSS
VL: QSVLTQSSSASGTPGQTVTVSCSGSSSDIGSNRVNWYQQLPGTAPKLLIYSNDQRPSGVPDRFSGSKSGTSASLAISGLQSADEADYYCAAWDDSLSTYVFGSGTKVTVL
For B1, the Kd [1] was 0.1 nM, the Kd [2] was 0.351 nM and the koff [2] was 0.000246 s⁻¹. It also gave a kon [2] of 702000 M⁻¹ s⁻¹, a Kd [3] of 0.265 nM and a koff [3] of 0.000211 s⁻¹. For the same binder, the kon [3] was 794000 M⁻¹ s⁻¹, the Kd [4] was 0.114 nM and the koff [4] was 7.64e-05 s⁻¹. It also gave a kon [4] of 670000 M⁻¹ s⁻¹ and an EC50 [5] of 0.15 nM.
